# Reference: publication PMC6411836
# Columns and labels:
# [1] = molecular target: SLX4 endogenous in Xenopus egg extract (Xenopus laevis (endogenous in Xenopus egg extract)); experiment: co-depletion by immunodepletion
# [2] = molecular target: SLX1 endogenous in Xenopus egg extract (Xenopus laevis (endogenous in Xenopus egg extract)) (UniProt Q0IH86); experiment: co-depletion by immunodepletion
# UniProt Q0IH86, sequence (Q0IH86 whole entry): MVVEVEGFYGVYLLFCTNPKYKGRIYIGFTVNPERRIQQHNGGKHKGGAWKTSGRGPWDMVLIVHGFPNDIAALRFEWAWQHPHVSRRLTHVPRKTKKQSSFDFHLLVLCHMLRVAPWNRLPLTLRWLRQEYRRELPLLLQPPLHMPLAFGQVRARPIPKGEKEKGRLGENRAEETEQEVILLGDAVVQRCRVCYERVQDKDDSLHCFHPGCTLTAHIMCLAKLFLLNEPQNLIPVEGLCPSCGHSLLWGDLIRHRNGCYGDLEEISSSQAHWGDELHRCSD
Substance,percent co-depleted [1] [%],percent co-depleted [2] [%]
XPF-ERCC1 endogenous in Xenopus egg extract (complex),50,50
SLX4 endogenous in Xenopus egg extract (natural protein),,90
